Reference: IntAct's records for PubMed 23222643

B1: Formin-like protein 3 (Mus musculus), Q6ZPF4-1 (parent)
chain: MGNLESTDGGPGEPPSVPLLLPPGKTPMPEPCELEERFALVLSSMNLPPDKARLLRQYDNEKKWDLICDQERFQVKNPPHTYIQKLQSFLDPNVTRKKFRRRVQESTKVLRELEISLRTNHIGWVREFLNDENKGLDVLVDYLSFAQCSVMFDFEGLESGDDGAFDKLRSWSRSIEDLQPPNALSAPFTNSLARSARQSVLRYSTLPGRRALKNSRLVSQKDDVHVCILCLRAIMNYQYGFNLVMSHPHAVNEIALSLNNKNPRTKALVLELLAAVCLVRGGHEIILAAFDNFKEVCKELHRFEKLMEYFRNEDSNIDFMVACMQFINIVVHSVEDMNFRVHLQYEFTKLGLEEFLQKSRHTESEKLQVQIQAYLDNVFDVGGLLEDAETKNVALEKVEELEEHVSHLTEKLLDLENENMMRVAELEKQLLQREKELESIKETYENTSNQVHTLRRLIKEKEEAFQRRCHLEPSARGLESMGGEALARVGPTELTEGIPPSDLDLLAPAPPTEETLPLPPPPAPPLPPPPPPLPDKCPPAPPLPGAAPSVVLTVGLSAIRIKKPIKTKFRLPVFNWTALKPNQINGTVFSELDDEKILEDLDLDRFEELFKTKAQGPALDLICSKNKTAQKAASKVTLLEANRAKNLAITLRKAGRSAEEICRAIHTFDLQTLPVDFVECLMRFLPTEAEVKLLRQYERERQPLEELAAEDRFMLLFSKVERLTQRMAGMAFLGNFQDNLQMLTPQLNAIIAASASVKSSQKLKQMLEIILALGNYMNSSKRGAVYGFKLQSLDLLLDTKSTDRKMTLLHFIALTVKEKYPELANFWQELHFVEKAAAVSLENVLLDVKELGRGMELIRRECSIHDNSVLRNFLSTNEGKLDKLQRDAKTAEEAYNAVVRYFGESPKTTPPSVFFPVFVRFIRSYKEAEQENEARKKQEEVMREKQLAQEAKKLDAKTPSQRNKWQQQELIAELRRRQAKEHRPVYEGKDGTIEDIITVLKSVPFTARTAKRGSRFFCDAAHHDESNC

Variants of: B1
Conditions: with acts_rabit ACTA1, P68135
I649A was tested, and the “effect of a mutation on the interaction” value was “decreasing interaction strength”.
